Results taken from publication PMC10858199 (2024).

Molecular target: Amyloid-beta aggregates (Homo sapiens, UniProt P05067)
Assay: SPR

B1: CR4 I-domain (protein)
chain: RNFATMMNFVRAVISQFQRPSTQFSLMQFSNKFQTHFTFEEFRRSSNPLSLLASVHQLQGFTYTATAIQNVVHRLFHASYGARRDAAKILIVITDGKKEGDSLDYKDVIPMADAAGIIRYAIGVGLAFQNRNSWKELNDIASKPSQEHIFKVEDFDALKDIQNQLKEKIFAIEGT
Kd: ~1000 nM
